What is called Kd is a measure of binding affinity in units of concentration.

This experiment has as its target T1, calcineurin (Homo sapiens, UniProt Q08209).
T1 construct: made in house
The experiment in a line: Isothermal titration calorimetry (ITC) of RCAN1 constructs with calcineurin. In kind it is binding. As for the experimental part:
Only RCAN1^89-197 (SEQ ID NO: 2) was labeled with NMR active nuclei; calcineurin was unlabeled. […] See, FIG. 2.
Affinity of each RCAN1 construct for calcineurin was measured using ITC to determine the individual contribution of each motif to binding. […] See, FIG. 2A.
The CNB subunit was analyzed to determine whether the subunit influences binding by generating a construct of only the calcineurin catalytic domain, CNAcat containing residues 1-348, and identical to a previously characterized CNA construct. See, Takeuchi et al., Structure 15, 587-97 (2007).
To determine how the TxxP (SEQ ID NO: 11) motif binds and engages calcineurin, the residues within and surrounding the TxxP (SEQ ID NO: 11) motif were mutated (i.e. K182A/E, Q185A, E190R/A, Y191A) and ITC was used to quantify which residues are most critical for calcineurin binding. ITC was used to determine whether the TxxP (SEQ ID NO: 11) motif binds only the CNA catalytic domain, or also requires CNB for binding using RCAN1^128-197, without requiring the LxVP (SEQ ID NO: 10) motif. Calcineurin active site residues were mutated as follows: R122A/D, H151A, D118A, R254A/D; and the change in affinity was quantified.
(In general: In ITC the heat of successive injections is recorded.)

T1 sequence (Q08209 1-391 limits assumed): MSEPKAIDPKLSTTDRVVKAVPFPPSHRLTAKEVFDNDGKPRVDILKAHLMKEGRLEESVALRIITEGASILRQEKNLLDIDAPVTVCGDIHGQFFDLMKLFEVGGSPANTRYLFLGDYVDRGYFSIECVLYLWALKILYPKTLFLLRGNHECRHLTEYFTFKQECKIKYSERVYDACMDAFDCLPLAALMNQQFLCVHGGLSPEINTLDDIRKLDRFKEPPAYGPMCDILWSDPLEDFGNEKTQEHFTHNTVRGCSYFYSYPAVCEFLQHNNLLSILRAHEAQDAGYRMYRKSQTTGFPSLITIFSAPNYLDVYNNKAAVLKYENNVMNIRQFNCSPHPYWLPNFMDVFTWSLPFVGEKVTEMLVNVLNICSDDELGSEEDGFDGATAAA
T1 sequence (P63098 whole entry partner): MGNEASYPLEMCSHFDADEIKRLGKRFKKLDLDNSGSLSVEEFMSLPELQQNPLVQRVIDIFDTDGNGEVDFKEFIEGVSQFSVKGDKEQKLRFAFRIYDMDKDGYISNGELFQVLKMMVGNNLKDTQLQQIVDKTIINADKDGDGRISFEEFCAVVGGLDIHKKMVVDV

Regarding “RCAN1^128-192: within SEQ ID NO: 2; includes RCAN1^128-164 and the TxxP site”, the Kd was roughly 300 nM.

B1: RNA-binding domain (amino acid positions 1-88): structured N-terminal RNA-binding domain of RCAN1, amino acid positions 1-88 (protein, UniProt P53805 1-88, looked up, fragment)
chain: MEDGVAGPQLGAAAEAAEAAEARARPGVTLRPFAPLSGAAEADEGGGDWSFIDCEMEEVDLQDLPSATIACHLDPRVFVDGLCRAKFE
For the molecule B1, the “binding to calcineurin (in words)” value was “does not interact directly”.

(Values after US9453061B2, “Method and compositions for treatment of calcineurin-related diseases” (BROWN UNIVERSITY, priority 2014, dated 2016).)
